The subject of data set [1] is O=C(Cc1cccs1)N[C@@H]1C(=O)N2C(C(=O)O)=C(/C=C/c3ccc([N+](=O)[O-])cc3[N+](=O)[O-])CS[C@H]12. In words: purified protein. Particulars: pH 6.4; 25.0 °C.
Data set [2] concerns CC1(C)S[C@@H]2[C@H](NC(=O)[C@H](N)c3ccccc3)C(=O)N2[C@H]1C(=O)O. In words: purified protein. Conditions: pH 6.4; 25.0 °C.

Results on one substance are retold here after paper PMC8383266 (Biochemistry, 2021).

In general, Km refers to the substrate concentration at which the rate is half of its maximum. Usually kcat stands for the number of substrate molecules converted per active site and unit of time at saturation. As usually defined, the kcat/Km is the second-order rate constant that governs catalysis at low substrate concentration.

For the substance (Mycobacterium tuberculosis H37Rv), in data set [1], the Km turned out to be 560 µM, the turnover number (kcat) turned out to be 220 s⁻¹ and the catalytic efficiency (kcat/Km) was found to be 390000 M⁻¹ s⁻¹. In data set [2], the catalytic constant (kcat) worked out at 2.1 s⁻¹ and the specificity constant (kcat/Km) came out at 17000 M⁻¹ s⁻¹.
